In patent publication US20110091460A1 (REGENTS OF THE UNIVERSITY OF MINNESOTA, published 2011):

Target: epidermal growth factor receptor (EGFR) (human, UniProt P00533 25-1210)
Assay: cell-based or functional assay

B1: EGF4 KDEL (ligand)
chain: MNSDSECPLSHDGYCLHDGVCMYIEALDKYACNCVVGYIGERCQYRDLKWWELRPSGQAGAAASESLFVSNHAYMGLTSQLLPPLFFLLACAGNFVHGHKCDITLQEIIKTLNSLTEQKTLCTELTVTDIFAASKNTTEKETFCRAATVLRQFYSHHEKDTRCLGATAQQFHRHKQLIRFLKRLDRNLWGLAGLNSCPVKEANQSTLENFLERLKTIMREKYSKCSSEASGGPEPEGGSLAALTAHQACHLPLETFTRHRQPRGWEQLEQCGYPVQRLVALYLAARLSWNQVDQVIRNALASPGSGGDLGEAIREQPEQARLALTLAAAESERFVRQGTGNDEAGAANADVVSLTCPVAAGECAGPADSGDALLERNYPTGAEFLGDGGDVSFSTRGTQNWTVERLLQAHRQLEERGYVFVGYHGTFLEAAQSIVFGGVRARSQDLDAIWRGFYIAGDPALAYGYAQDQEPDARGRIRNGALLRVYVPRSSLPGFYRTSLTLAAPEAAGEVERLIGHPLPLRLDAITGPEEEGGRLETILGWPLAERTVVIPSAIPTDPRNVGGDLDPSSIPDKEQAISALPDYASQPGKPPKDEL
Q: For B1, which “IC50, killing of MDA-MB-231 cells (3H-thymidine uptake assay)” value is on record?
A: 2 pM
